B1: mAb of B cell clone 173 (supernatant) (antibody, V domains shown)
VH: QSVEESGGDLVKPGASLTLTCTASGFDFSSNAYLCWVRQAPGKGLEWIGCIYDGTSGDTYYANWAKGRFTISRSSSTTVTLQMTSLTAADTATYFCARDTRSSNYYFNLWGPGTLVTISS
VL: ELVLTQTPSSTSAAVGGTVTINCQASQSVDNNKQLSWYQQKPGQPPKQLIYSASKLASGVPSRFKGSGSGTQFTLTISDLECDDAATYYCAGYYYSGSATDAWAFGGATEVEIN
notes: rabbit
B2: mAb of B cell clone 93 (supernatant) (antibody, V domains shown)
VH: EQSVEESGGDLVKPGTSLTLTCTASGFSFSGNTICWVRQAPGKRPEWIACIYPSSTSITTYATWAKGRFTVSKTSSTTVTLQMTSLTAADTATYFCARRYAAFLTYGSGAFDPWGPGTLVTISS
VL: ELDLTQTPASVSAAVGGTVTINCQASESIGSALAWYQQKPGQPPKLLIYSASALASGVPSRFKGSGSGTEYTLTISDLECADAATYYCQSYYGSGTTALDTFGGGTEVEIK
notes: rabbit; also called B1-#93
B3: mAb of B cell clone 110 (supernatant) (antibody, V domains shown)
VH: QSLEESGGDLVKPEGSLTLTCTASGFSFSSSYWICWVRQAPGKGLEWIGCIYAGNSANTYYASWAKGRFTISKTSSTTVTLQLTSLTAADTATYFCASRNGGAPDGLNLWGPGTLVTISS
VL: ELDLTQTPASVEAAVGGTVTIKCQASLNINSWLAWYQQKPGQPPKLLISYTSSLASGVPSRFKGSGSGTEYTLTINDLECADAATYYCQTTYFGTNGGGFGGGTEVEIK
notes: rabbit; also called B1-#110
B4: mAb of B cell clone 162 (supernatant) (antibody, V domains shown)
VH: QSVKESEGGLVQPGGSLTLSCKASGIDFSSAYMSWVRQAPGKGLEWIGKMRINDRSHYANWVNGRFTISNHNDQNTVELQLNSLTAADTATYFCARIATGTNVDDFWGPGTLVTISS
VL: ELVMTQTASPVSAAVGGTVTISCQSSQSVYSNNWLSWYQQKPGQPPKRLIYKASTLETGVPSRFKGSGSGKQFTLTISDLECDDAATYYCAGGYSGDLYAFGGGTEVVVK
notes: rabbit; also called B1-#162
B5: mAb of B cell clone 175 (supernatant) (antibody, V domains shown)
VH: ESEGGLVKPGGTLTLTCKVSGIDFNSYKYYYMCWVRQAPGKGLEWIGCMSTASRNIYYASWAKGRFTISETSSTSVTLQMTTLTAADTATYFCAKSHGGDGGYGVVLWGPGTLVTISS
VL: ELVMTQTPSSVSAAVGDTLTINCQASETISNRLAWYQQKPGQPPKLLIYSASTLESGVPSRFRGSGSGTQFTLTISDLECADAATYYCQSIRSSSGVVHPNTFGGGTEVEIK
notes: rabbit
B6: mAb of B cell clone 204 (supernatant) (antibody, V domains shown)
VH: QSVKESGGGLVKPGGTLTLTCTASGFSFSSSYCMCWVRQAPGKGLELIACIYTDSSGATYYASWAKGRFTISKSSSTTITLQMTSLTAADTATYFCARGWDYEDPGYTDTTYFSLWGPGTLVTVSS
VL: ELDMTQTPSSVEAAVGGTVTIKCQASQTIYTNLAWYQQKPGQPPNLLIYAASTLASGVSSRFKGSGSGTEFTLTISDLECADAATYYCQSYYGSSTTGNGFGGGTEVEIN
notes: rabbit
B7: mAb of B cell clone 227 (supernatant) (antibody, V domains shown)
VH: QSVKESGGGLVKPGGTLTLTCTASGFSFSSSYCMCWVRQAPGKGLELIACIYTDSSGATYYASWAKGRFTISKSSSTTITLQMTSLTAADTATYFCARGWDYEDPGYTDTTYFSLWGPGTLVTVSS
VL: ELDLTQTASPVSGAVGGTVTIKCQASQSIASDLAWYQQKPGQPPNLLIYAASTLASGVSSRFKGSGSGTEFTLTISDLECADAATYYCQSYYGSSTTGNGFGGGTEVVVK
notes: rabbit
B8: mAb of B cell clone 176 (supernatant) (antibody, V domains shown)
VH: QSLEESEGGLVKPGGTLTLTCTASGFSFSSSYCMCWVRQAPGKGLELIACIYTDSSGATYYASWAKGRFTISKSSSTTITLQMTSLTAADTATYFCARGWDYEDPGYTDTTYFSLWGPGTLVTVSS
VL: ELDLTQTPSSVEAAVGGTVTIKCQASQTIYTNLAWYQQKPGQPPNLLIYAASTLASGVSSRFKGSGSGTEFTLTISDLECADAATYYCQSYYGSSTTGNGFGGGTEVEIK
notes: rabbit
B9: mAb of B cell clone 170 (supernatant) (antibody, V domains shown)
VH: QSVEESGGGLVKPGASLTLSCTASGFDFSSKYYMWWVRQAPGKGLEWIARIYGGSSDSTDYATWARGRFAISRTSSTTVTLRMTSLTAADTATYFCGRVIDGACGYDLWGPGTLVTVSS
VL: ELDLTQTPASVSAAVGGTVTISCQSSQSVHHSQTVHNNQWLAWYQQKPGQPPKLLIYDASKLASGVPSRFTGSGSGTQFSLTISAVQCDDAATYYCQGGYSYGDVYGFGGGTELEIK
notes: rabbit; also called B1-#170
B10: mAb of B cell clone 128 (supernatant) (antibody, V domains shown)
VH: RAVGKESGGDLVTLGGSLKLSCKASGIDLSNFYYMCWVRQAPGKGLEWIGCVASDSSRTHYATWPKGRFTISKTSSTTVTLQMTSLTAADTATYFCARGSGASTNGVWWVMGDGMDLWGPGTLVTVSS
VL: ELDMTQTPSSVSAAVGGTVTIKCQASQSISSYLSWYQQKPGQPPKRLIYKASTLPSGVPPRFKGSGSGTEFTLTISDLECADAATYYCQNNYHSGSSNGGGFAFGGGTQVEIK
notes: rabbit
B11: mAb of B cell clone 178 (supernatant) (antibody, V domains shown)
VH: QKQLVESGGGLVQPEGSLALTCTASGFSFSSSYWICWVRQAPGKGLEWIACIYAGSSGSTYYASWVNGRFTVFKTSSTTVTLQMTSLTAADTATYFCARGGTSYRLDLWGPGTLVTVSS
VL: ELVLTQTPSSKSVAVGDTVTINCQASDNVYSNNYTSWFQQKPGQPPKQLLYYAAYRASGVPSRFKGSGSGTEFTLSISDVVCDDAATYYCSGHKDYSDDGSTFGGGTEVEIK
notes: rabbit
B12: mAb of B cell clone 185 (supernatant) (antibody, V domains shown)
VH: SQQLKESGGGLVKPGGTLTLTCKASGIDFNNDYNICWVRQPPGKGLEWIGCIYTGSDSTDYASWVNGRFTISESTSLNTVDLKVTSLTDADTATYFCARDLVTGYATYGYGFILWGPGTLVTVSS
VL: ELVLTQTPSSKSVAVGDTVTINCQASDNVYSNNYTSWFQQKPGQPPKQLLYYAAYRASGVPSRFKGSGSGTEFTLSISDVVCDDAATYYCSGHKDYSDDGSTFGGGTEVEIK
notes: rabbit
B13: mAb of B cell clone 3 (supernatant) (antibody, V domains shown)
VH: QSLEESEGDLVKPEGSLTLTCKASGFDFSSDAMCWVRQAPGKGLEWIGCIYNGDEITDHASWAKGRFTISKTSPTTVTLQMTSLTVADTATYFCARAVYSDGGAGYPYMYGMDLWGPGTLVTVSS
VL: ELDMTQTPASVEAAVGGTVTIKCQASQNIYSYLVWYQQKPGQPPKLLISKASTLASGVSSRFKGSGSGTEFTLTINDLECADAATYYCQTNYFSSTSHFGVFTFGGGTELEIK
notes: rabbit; also called B1-#3
B14: mAb of B cell clone 117 (supernatant) (antibody, V domains shown)
VH: EQSLEESGGDLVKPEGSLTLTCTASGFSFSSSYYMCWIRQPPGRGLEWLACIYTGSDSTYYAPWAKGRFTISRTSSTTVTLQMTSLTAADTATYFCAGDWDYADAAGYYVARGFNLWGPGTLVTISS
VL: ELDLTQTPASVSAAVGGTVTIKCQASEDIYSNLAWYQQKPGQPPKLLIYKASTLASGVPPRFKGSGSGTEYTLTISGVQCDDAATYACQTTYWTTTDDNPFGGGTEVEIK
notes: rabbit
B15: mAb of B cell clone 154 (supernatant) (antibody, V domains shown)
VH: QSVKESGGDLVKPGASLTLTCKASGFSFSSGHYMYWVRQAPGKGLEWIACIYAGSDTGSTWYASWAKGRFTISKTSSTTVTLQMTSLTAADTATYFCARSSNSYGNYGVSNLWGPGTLVTVSS
VL: ELDLTQTPASVEAAVRGTVTIKCQASQSISYYLAWYQQKPGQPPKVLIYKASTLASGVPPRFKGSGFGTEFTLTISDLECADAATYYCQSTYGRDNNDLFFAFGGGTEVEIK
notes: rabbit
B16: mAb of B cell clone 98 (supernatant) (antibody, V domains shown)
VH: EQSLEESGGDLVKPEGSLTLTCTASGFSFSSSYWICWVRQAPGKGLEWIACVATGSGTTDYASWAKGRFTMSKTSSTTVTLQMTSLTVADTATYFCARIGAFYSFRLWGPGTLVTISS
VL: ELDLTQTPGSVEAAVGGTVTIKCQAGQSIYNYLSWYQQKPGQPPKLLIYSASTLESGVPPRFSGSGSGTEFTLTISDLECADAATYSCQNNYGIGSNYGPGFGGGTEVEIK
notes: rabbit; also called B1-#98
B17: mAb of B cell clone 160 (supernatant) (antibody, V domains shown)
VH: QEQLVESGGGLVQPEGSLTLTCKASGIDFSSGYWICWVRQAPGKGLELIACIFTSSGTTYYASWAKGRFTISKTSSTTVTLQMTSLTAADTATYFCARDIYSYGMDLWGPGTLVTVSS
VL: ELDLTQTPASVSAAVGGTVTIKCQASQSISSSYLAWYQQKPGQPPKLLIYSASSTASGVPSRFKGSGSGTQFTLTISDLECADAATYYCQSTYISSSKYGAVFGGGTELEIK
notes: rabbit; also called B1-#160
B18: mAb of B cell clone 4 (supernatant) (antibody, V domains shown)
VH: RAVGKESGGGLVKPGASLTLTCKASGFDFSGIYWVCWVRQAPGKGLEWIACFDAERTGNTYYATWAKGRFTISRTSSTTVTLQMTSLTAADTATYFCARSYYMWGPGTLVTVSS
VL: ELVLTQTPSPVSAVVGGSVTINCQSSQSLYNANDLSWYQQKPGQPPKQLIYWASTLASGVPSRFKGSGSGTQFTLSISDVQCDDAATYYCLGEFSCSSFDCHVFGGGTEVVVK
notes: rabbit; also called B1-#4
B19: mAb of B cell clone 115 (supernatant) (antibody, V domains shown)
VH: EQSVKESGGGLVQPEGSLTLTCTASGFSFSSSYWICWVRQAPGKGLEWIGCIATGTGSTYYANWVNGRFTMSKPSSTTVTLQMTTLTAADTATYFCARGGGYWSFSLWGPGTLVTISS
VL: ELVMTQTPSSVEAAVGGTVTNKCQASEDIYSNLAWYQQKPGQPPKLLIYGATTLASGVPSRFKGSGSGTEFTLTISDLECADAATYYCQAESNDVWAFGGGTEVVVK
notes: rabbit
B20: mAb of B cell clone 125 (supernatant) (antibody, V domains shown)
VH: EQSLEESGGGLVQPEGSLTLTCTASGFSFTKNYYMCWVRQAPGKGLEWIGCIYAGSTNTFYASWAKGRFTISKASSTTVDLKMTSLTVADTATYFCARDFVSYLNLWGPGTLVTVSS
VL: ELDLTQTPSSSSAAVGGTVTINCQASQSVYNKNYLSWFQQKPGQPPKLLIYYASTLASGVPSRFKGSGSGTEFTLTISDVVCDDAATYYCAAYKGVSDDGISFGGGTEVEIK
notes: rabbit
B21: mAb of B cell clone 167 (supernatant) (antibody, V domains shown)
VH: EQLMEESGGGLVQPEGSLTLTCTASRFSLSNMNVMCWVRQAPGKGLEWIGCINIGGTNIWYASWAKGRFTISKTSSTTVTLQMTSLTVADTATYFCARSYITDRIYDYDFWGPGTLVTISS
VL: ELDMTQTPSPVSAAVGGSVTISCQASQTIYNNKNLAWYQQKPGQPPKLLIYQASKLASGVSSRFSGSGSGTQFTLTISGVQCDDAATYYCQGEFSCSSGDCTTFGGGTEVVVK
notes: rabbit

The target of this test is T1, human LILRB1 recombinant protein (human, UniProt Q8NHL6 24-461).
T1 construct: The ELISA method says only 'LILRB1 recombinant proteins' coated on plates; also called leukocyte immunoglobulin-like receptor subfamily B member 1
T1 sequence (Q8NHL6 24-461 limits assumed): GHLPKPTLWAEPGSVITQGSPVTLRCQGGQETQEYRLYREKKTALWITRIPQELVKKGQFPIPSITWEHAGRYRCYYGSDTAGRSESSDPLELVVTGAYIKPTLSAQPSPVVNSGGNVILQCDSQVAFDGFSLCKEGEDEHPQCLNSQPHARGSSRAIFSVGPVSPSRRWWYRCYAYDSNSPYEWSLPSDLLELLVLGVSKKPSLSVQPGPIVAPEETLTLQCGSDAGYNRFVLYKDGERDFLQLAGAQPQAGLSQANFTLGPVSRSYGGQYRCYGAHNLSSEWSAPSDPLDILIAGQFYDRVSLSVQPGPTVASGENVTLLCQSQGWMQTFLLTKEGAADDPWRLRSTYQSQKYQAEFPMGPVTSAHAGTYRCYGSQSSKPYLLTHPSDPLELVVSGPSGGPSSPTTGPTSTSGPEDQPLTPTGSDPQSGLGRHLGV
The test can be described thus: ELISA, B cell supernatant.
On to B1, for which the OD450 stood at 2.14 OD450.

As to B2, the OD450 is 1.72 OD450.

Consider B3, for which the OD450 stood at 2.31 OD450.

As for B4, the OD450 worked out at 2.02 OD450.

Consider B5, for which the OD450 worked out at 2.02 OD450.

As for B6, the OD450 amounted to 2.03 OD450.

As for B7, the OD450 is 2.08 OD450.

As to B8, the OD450 worked out at 2.06 OD450.

On to B9, for which the OD450 was found to be 2.26 OD450.

Take B10: the OD450 stood at 2.51 OD450.

On to B11, for which the OD450 is 1.81 OD450.

Consider B12, for which the OD450 is 1.67 OD450.

For B13, the OD450 came out at 2.11 OD450.

With B14, the OD450 came to 2.23 OD450.

For the molecule B15, the OD450 is 1.98 OD450.

For the molecule B16, the OD450 worked out at 2.01 OD450.

Turning to B17, the OD450 turned out to be 1.87 OD450.

In the case of B18, the OD450 turned out to be 2.47 OD450.

Regarding B19, the OD450 turned out to be 1.53 OD450.

For B20, the OD450 came out at 2.43 OD450.

For B21, the OD450 came out at 1.12 OD450.

The values are drawn from patent US12723078 (University of Texas, dated 2026).
